B1: Peptide A34 (peptide)
peptide: AAGSHPSRWAGMGRRLLLRSA
notes: alanine-scan variant of the domain I 21-mer
B2: Peptide A41 (peptide)
peptide: AAGSHPSRWAGMGARLLLRSV
notes: as for B1
B3: Peptide A38 (peptide)
peptide: AAGSHPSRWAGMGRRLALRSV
notes: as for B1
B4: Peptide A45 (peptide)
peptide: AAGSHPSRAAGMGRRLLLRSV
notes: as for B1
B5: Peptide A42 (peptide)
peptide: AAGSHPSRWAGMARRLLLRSV
notes: as for B1
B6: Peptide A47 (peptide)
peptide: AAGSHPARWAGMGRRLLLRSV
notes: as for B1
B7: Peptide A37 (peptide)
peptide: AAGSHPSRWAGMGRRLLARSV
notes: as for B1
B8: Peptide A36 (peptide)
peptide: AAGSHPSRWAGMGRRLLLASV
notes: as for B1
B9: Peptide A39 (peptide)
peptide: AAGSHPSRWAGMGRRALLRSV
notes: as for B1
B10: Peptide A46 (peptide)
peptide: AAGSHPSAWAGMGRRLLLRSV
notes: as for B1
B11: Peptide A44 (peptide)
peptide: AAGSHPSRWAAMGRRLLLRSV
notes: as for B1
B12: Peptide A35 (peptide)
peptide: AAGSHPSRWAGMGRRLLLRAV
notes: as for B1
B13: Peptide A43 (peptide)
peptide: AAGSHPSRWAGAGRRLLLRSV
notes: as for B1
B14: Peptide A40 (peptide)
peptide: AAGSHPSRWAGMGRALLLRSV
notes: as for B1

These binders were tested against T1, recombinant human IL-6 (human, UniProt P05231 30-212, labeled with radioactive iodine) (assay: radioiodinated IL-6 on peptide array).
T1 construct: Labeled probe in solution, added to wells that carry the synthetic peptides; also called IL-6 ligand; Interleukin-6
Experimental: Synthetic peptide arrays were constructed in 96-well microtiter plates in accordance with the method set forth in WO 91/02714 (Saxinger), and used to test the binding of recombinant human IL-6 that had been labeled with radioactive iodine (radiolabeling by standard methods). After incubating the radiolabeled IL-6 ligand in a well with each synthetic peptide, a washing step was performed to remove unbound label, and the relative level of radioactivity remaining in each well of the plate was evaluated to determine the relative affinity of each peptide for IL-6 ligand.

Point of comparison: KAVLLVRKFQNS [Peptide B27], Counts/minute bound 5600 counts/minute. Against it:
- PRSTPSLTTKAVLLVR [Peptide B6] — lower, 4360 counts/minute
- AGMGRRLLLRSV [Peptide A26] — higher, 7620 counts/minute
- PSLTTKAVLLVRKFQNS [Peptide B21] — higher, 13300 counts/minute
- RLLLRSV (also called RLLLRSV) [Peptide A31] — lower, 5460 counts/minute
- B1 — higher, 11800 counts/minute
- B2 — lower, 4460 counts/minute
- B3 — higher, 7080 counts/minute
- B4 — higher, 8040 counts/minute
- B5 — higher, 12300 counts/minute
- B6 — higher, 11300 counts/minute
- B7 — higher, 7730 counts/minute
- B8 — lower, 4900 counts/minute
- B9 — lower, 5280 counts/minute
- B10 — higher, 9520 counts/minute
- B11 — higher, 11900 counts/minute
- B12 — higher, 11200 counts/minute
- B13 — higher, 13500 counts/minute
- B14 — lower, 4250 counts/minute
- LLLRSV (also called LLLRSV) [Peptide A32] — lower, 1600 counts/minute
- PRSTPS (also called PRSTPS) [Peptide B16] — lower, 1020 counts/minute
- PRSTPSLTTKA [Peptide B11] — lower, 1240 counts/minute
- PRSTPSLTTKAVLLVRK [Peptide B5] — lower, 3960 counts/minute
- RSTPSLTTKAVLLVRKFQNS [Peptide B18] — higher, 13000 counts/minute
- PRSTPSL (also called PRSTPSL) [Peptide B15] — lower, 985 counts/minute
- AAGSHP (also called AAGSHP) [Peptide A16] — lower, 1570 counts/minute
- LTTKAVLLVRKFQNS [Peptide B23] — higher, 12200 counts/minute
- PRSTPSLT [Peptide B14] — lower, 930 counts/minute
- PRSTPSLTTK [Peptide B12] — lower, 1310 counts/minute
- PRSTPSLTTKAVL [Peptide B9] — lower, 1400 counts/minute
- SHPSRWAGMGRRLLLRSV [Peptide A20] — higher, 12000 counts/minute
- AAGSHPSRW [Peptide A13] — lower, 1520 counts/minute
- MGRRLLLRSV [Peptide A28] — higher, 7140 counts/minute
- WAGMGRRLLLRSV [Peptide A25] — higher, 12200 counts/minute
- AVLLVRKFQNS [Peptide B28] — higher, 9070 counts/minute
- LLVRKFQNS [Peptide B30] — higher, 7200 counts/minute
- PRSTPSLTT [Peptide B13] — lower, 1050 counts/minute
- RRLLLRSV [Peptide A30] — higher, 5970 counts/minute
- PRSTPSLTTKAVLLVRKF [Peptide B4] — lower, 4690 counts/minute
- LVRKFQNS [Peptide B31] — lower, 2520 counts/minute
- AAGSHPSRWA [Peptide A12] — lower, 1330 counts/minute
- VLLVRKFQNS [Peptide B29] — higher, 9100 counts/minute
- GMGRRLLLRSV [Peptide A27] — higher, 6820 counts/minute
- PRSTPSLTTKAV [Peptide B10] — lower, 1220 counts/minute
- PRSTPSLTTKAVLLV [Peptide B7] — lower, 3400 counts/minute
- AGSHPSRWAGMGRRLLLRSV [Peptide A18] — higher, 13400 counts/minute
- PRSTPSLTTKAVLLVRKFQ [Peptide B3] — higher, 7080 counts/minute
- RWAGMGRRLLLRSV [Peptide A24] — higher, 12100 counts/minute
- VRKFQNS (also called VRKFQNS) [Peptide B32] — lower, 1180 counts/minute
- TTKAVLLVRKFQNS [Peptide B24] — higher, 7010 counts/minute
- PSRWAGMGRRLLLRSV [Peptide A22] — higher, 11100 counts/minute
- PRSTPSLTTKAVLLVRKFQN [Peptide B2] — higher, 7930 counts/minute
- STPSLTTKAVLLVRKFQNS [Peptide B19] — higher, 12200 counts/minute
- TPSLTTKAVLLVRKFQNS [Peptide B20] — higher, 12900 counts/minute
- GRRLLLRSV [Peptide A29] — lower, 5370 counts/minute
- HPSRWAGMGRRLLLRSV [Peptide A21] — higher, 12000 counts/minute
- SRWAGMGRRLLLRSV [Peptide A23] — higher, 8270 counts/minute
- AAGSHPS (also called AAGSHPS) [Peptide A15] — lower, 1320 counts/minute
- GSHPSRWAGMGRRLLLRSV [Peptide A19] — higher, 11000 counts/minute
- AAGSHPSR [Peptide A14] — lower, 1350 counts/minute

Biological target: T1, recombinant human IL-6
Assay: radioiodinated IL-6 on peptide array
Remark: another data set of the same source

Point of comparison: NANYIVWKTNHFTIPKEQYTIINR [Peptide E7], Counts/minute bound 1330 counts/minute. Against it:
- ALFIFLTTESTGELLDPCGYISPE [Peptide E2] — higher, 1530 counts/minute
- TGELLDPCGYISPESPVVQLHSNF [Peptide E3] — lower, 1300 counts/minute
- HSNFTAVCVLKEKCMDYFHVNANY [Peptide E5] — lower, 1290 counts/minute
- ISPESPVVQLHSNFTAVCVLKEKC [Peptide E4] — higher, 1500 counts/minute
- KEKCMDYFHVNANYIVWKTNHFTI [Peptide E6] — higher, 1440 counts/minute
- MLTLQTWVVQALFIFLTTESTGEL [Peptide E1] — higher, 3360 counts/minute

From patent publication US20040092720A1 (US Dept. of Health and Human Services, published 2004)
